Target: T1, histone H4 of Xenopus laevis, in the 29N59 nucleosome (Xenopus laevis, UniProt P62799 1-103)
T1 construct: histone H4, Xenopus laevis; Stood within the nucleosome in the cross-linking
Experiment: cross-linking; BS3 cross-linking with mass spectrometry (CX-MS): 35 nM FLAG tagged SWI/SNF, 35 nM 29-N-59 nucleosomes, 200 nM Gal4-VP16, 115 μM BS3, room temperature, 2 h
Conditions: both partners purified

- binding result: binds
B1: Snf2, catalytic subunit of yeast SWI/SNF, with a C-terminal double FLAG epitope (enzyme)
chain: MNIPQRQFSNEEVNRCYLRWQHLRNEHGMNAPSVPEFIYLTKVLQFAAKQRQELQMQRQQQGISGSQQNIVPNSSDQAELPNNASSHISASASPHLAPNMQLNGNETFSTSAHQSPIMQTQMPLNSNGGNNMLPQRQSSVGSLNATNFSPTPANNGENAAEKPDNSNHNNLNLNNSELQPQNRSLQEHNIQDSNVMPGSQINSPMPQQAQMQQAQFQAQQAQQAQQAQQAQQAQARLQQGRRLPMTMFTAEQSELLKAQITSLKCLVNRKPIPFEFQAVIQKSINHPPDFKRMLLSLSEFARRRQPTDQNNQSNLNGGNNTQQPGTNSHYNNTNTDNVSGLTRNAPLDSKDENFASVSPAGPSSVHNAKNGTLDKNSQTVSGTPITQTESKKEENETISNVAKTAPNSNKTHTEQNNPPKPQKPVPLNVLQDQYKEGIKVVDIDDPDMMVDSFTMPNISHSNIDYQTLLANSDHAKFTIEPGVLPVGIDTHTATDIYQTLIALNLDTTVNDCLDKLLNDECTESTRENALYDYYALQLLPLQKAVRGHVLQFEWHQNSLLTNTHPNFLSKIRNINVQDALLTNQLYKNHELLKLERKKTEAVARLKSMNKSAINQYNRRQDKKNKRLKFGHRLIATHTNLERDEQKRAEKKAKERLQALKANDEEAYIKLLDQTKDTRITHLLRQTNAFLDSLTRAVKDQQKYTKEMIDSHIKEASEEVDDLSMVPKMKDEEYDDDDDNSNVDYYNVAHRIKEDIKKQPSILVGGTLKDYQIKGLQWMVSLFNNHLNGILADEMGLGKTIQTISLLTYLYEMKNIRGPYLVIVPLSTLSNWSSEFAKWAPTLRTISFKGSPNERKAKQAKIRAGEFDVVLTTFEYIIKERALLSKVKWVHMIIDEGHRMKNAQSKLSLTLNTHYHADYRLILTGTPLQNNLPELWALLNFVLPKIFNSVKSFDEWFNTPFANTGGQDKIELSEEETLLVIRRLHKVLRPFLLRRLKKDVEKELPDKVEKVVKCKMSALQQIMYQQMLKYRRLFIGDQNNKKMVGLRGFNNQIMQLKKICNHPFVFEEVEDQINPTRETNDDIWRVAGKFELLDRILPKLKATGHRVLIFFQMTQIMDIMEDFLRYINIKYLRLDGHTKSDERSELLRLFNAPDSEYLCFILSTRAGGLGLNLQTADTVIIFDTDWNPHQDLQAQDRAHRIGQKNEVRILRLITTNSVEEVILERAYKKLDIDGKVIQAGKFDNKSTSEEQEALLRSLLDAEEERRKKRESGVEEEEELKDSEINEILARNDEEMAVLTRMDEDRSKKEEELGVKSRLLEKSELPDIYSRDIGAELKREESESAAVYNGRGARERKTATYNDNMSEEQWLRQFEVSDDEKNDKQARKQRTKKEDKSEAIDGNGEIKGENIDADNDGPRINNISAEDRADTDLAMNDDDFLSKKRKAGRPRGRPKKVKLEGSENSEPPALESSPVTGDNSPSEDFMDIPKPRTAGKTSVKSARTSTRGRGRGRGRGRGRGRGRGRPPKARNGLDYVRTPAAATSPIDIREKVAKQALDLYHFALNYENEAGRKLSDIFLSKPSKALYPDYYMIIKYPVAFDNINTHIETLAYNSLKETLQDFHLIFSNARIYNTEGSVVYEDSLELEKVVTKKYCEIMGDNSQLDFTEFDEQYGTRPLVLPPVVTSSVAESFTDEADSSMTEASV
notes: Snf2, catalytic subunit of SWI/SNF, S. cerevisiae; also called WT; SNF2-2FLAG; source: S. cerevisiae, SNF2-2FLAG in a Δsnf2 strain; not shown: FLAG x2, C-terminal, kept

Source: article PMC10403523, “The AT-hook is an evolutionarily conserved auto-regulatory domain of SWI/SNF required for cell lineage priming” (Nature Communications, 2023)
